Data taken from US20230381277A1, “HIGH AFFINITY IL-2 RECEPTOR AGONISTS AND IMMUNOSUPPRESSANTS TO ENHANCE IMMUNE TOLERANCE” (Selecta Biosciences, Inc., priority 2022, published 2023).

System: Ovalbumin-specific OTII T cells
Experiment: Example 5: adoptive transfer of ovalbumin-specific OTII T cells, antigen-specific Treg induction
Type: in vivo
Settings: mice with adoptively transferred OTII T cells; starting level ~3%
Procedure: However, expansion of antigen-specific Treg can be more desirable than expansion of total Treg. The ability of ImmTOR plus antigen combined with IL-2 mutein to induce and/or expand antigen-specific Treg was evaluated. Ovalbumin-specific OTII T cells were adoptively transferred into mice prior to treatment with ovalbumin and ImmTOR and/or IL-2 mutein.

B1: ovalbumin (protein, UniProt P01012 2-386, looked up)
Ovalbumin: GSIGAASMEFCFDVFKELKVHHANENIFYCPIAIMSALAMVYLGAKDSTRTQINKVVRFDKLPGFGDSIEAQCGTSVNVHSSLRDILNQITKPNDVYSFSLASRLYAEERYPILPEYLQCVKELYRGGLEPINFQTAADQARELINSWVESQTNGIIRNVLQPSSVDSQTAMVLVNAIVFKGLWEKAFKDEDTQAMPFRVTEQESKPVQMMYQIGLFRVASMASEKMKILELPFASGTMSMLVLLPDEVSGLEQLESIINFEKLTEWTSSNVMEERKIKVYLPRMKMEEKYNLTSVLMAMGITDVFSSSANLSGISSAESLKISQAVHAAHAEINEAGREVVGSAEAGVDAASVSEEFRADHPFLFCIKHIATNAVLFFGRCVSP
Question: B1 was tested. Which “percentage of Foxp3+ DTII cells” value did it give?
Answer: ~6%
